# Experimental data as given in patent US20090142377A1.
# Target: dH5-II (cdH5-0 heat-cycled at pH 2, back to pH 7) (influenza A virus H5N1 strain A/Vietnam/1203/04), Q8QPL1
# Assay: ELISA, coated H5 form, tPA series with excess e-amino caproic acid
# Settings: remark: other sources report otherwise
binder,measurement,value
"tissue type plasminogen activator (tPA; Actilyse, Boehringer-Ingelheim), P00750 36-562 (enzyme) SYQVICRDEKTQMIYQQHQSWLRPVLRSNRVEYCWCNSGRAQCHSVPVKSCSEPRCFNGGTCQQALYFSDFVCQCPEGFAGKCCEIDTRATCYEDQGISYRGTWSTAESGAECTNWNSSALAQKPYSGRRPDAIRLGLGNHNYCRNPDRDSKPWCYVFKAGKYSSEFCSTPACSEGNSDCYFGNGSAYRGTHSLTESGASCLPWNSMILIGKVYTAQNPSAQALGLGKHNYCRNPDGDAKPWCHVLKNRRLTWEYCDVPSCSTCGLRQYSQPQFRIKGGLFADIASHPWQAAIFAKHRRSPGERFLCGGILISSCWILSAAHCFQERFPPHHLTVILGRTYRVVPGEEEQKFEVEKYIVHKEFDDDTYDNDIALLQLKSDSSRCAQESSVVRTVCLPPADLQLPDWTECELSGYGKHEALSPFYSERLKEAHVRLYPSSRCTSQHLLNRTVTDNMLCAGDTRSGGPQANLHDACQGDSGGPLVCLNDGRMTLVGIISWGLGCGQKDVPGVYTKVTNYLDWIRDNMRP",Bmax,0.07
same,Kd,0.019 µM
